± gives the uncertainty stated by the source.

This data set in a line: amyloid nucleation score (Sup35N fusion, yeast selection) (log enrichment); library NNK1; higher = more nucleation; inactive = no reads after selection. The method in brief: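 Output and input plasmid inserts were sequenced by Illumina after psi-negative yeast carrying Sup35N fused to peptides of 20 random codons had been induced 24 hours with 100 μM copper sulfate and grown 7 days at 30°C on medium lacking adenine and uracil. The nucleation score is the DiMSum log enrichment of output over input reads, centred on the mode score of non-aggregating sequences. Sequences with under 100 input reads were excluded.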
The substance CIISNVCTRVGGKMGSYGYS had an amyloid nucleation score of 0.133 ± 0.4.
For CILGNME the value was “inactive”.
Then CILLYMQKSIGFGNSVKFAF, with “inactive”.
Then CILVARKAVLNCGGWKRSVR, with 6.27 ± 0.067.
CILWDWMYEGMKTSEGIFDR displayed an amyloid nucleation score of 0.118 ± 0.71.
For CIMLRMFVYESYSVCVVVA the value was “inactive”; for CITANMDENLVSRIRWASEY, 0.462 ± 0.79.
For CKEINL the value was -0.374 ± 0.6.
The substance CKRRIQMKLLS showed an amyloid nucleation score of -0.244 ± 0.37.
For CKTCFTLRKIF the value was -0.461 ± 0.38; for CKVSSSFS, 0.258 ± 0.34.
Then CKYVRTQVWSHRLPADNCLT, with -0.997 ± 0.98.
Then CLEDFLDNLFSSGYFKFQLV, with “inactive”; and CLIISRVVRSVTNIMEMNNG, with 0.251 ± 0.45.
Substance CLLYCTYVMRLTMLKILVVI returned an amyloid nucleation score of 1.27 ± 0.63.
For CLNGGNFYRSLTRAKTNKNF the value was -0.258 ± 1.1; for CLQMRSVSYVIMRFTGKLTW, 0.693 ± 0.32.
As to CLSGGFMPTYKVIWRQGCYG, the amyloid nucleation score result was “inactive”.
Then CLSRHLKNGPRMA, with 0.495 ± 1.
Then CLTSRQMMQKLMRYIKNDLG, with -0.051 ± 0.32; and CLVIRFILHLSCK, with 0.587 ± 0.54; and CLVYVQLWVARMSYPCVRFG, with 0.214 ± 0.32.
For CLWSSVGRQTEWFSHEVNGG the value was 0.017 ± 0.43; for CLYVTPYMLFYLLVSNGTEC, -1 ± 0.35.
Substance CMAHIYCWDICYNERWGFYI came in with an amyloid nucleation score of 4.11 ± 0.052.
For CMHFVYNIKVRIIPDEYDHS the value was 4.6 ± 0.091.
For CMVMLGSEQKFYMVVRPLKI the value was -0.085 ± 0.41; for CNDHNNEYVNVSHTRRARL, 0.99 ± 0.24.
CNFKIVSWVVNQVLFFSHFA yielded an amyloid nucleation score of -1.37 ± 2.1.
For CNGAGNLEGDGF the value was 0.317 ± 0.33.
For CNILVTRFSNSREFNRCTWR the value was “inactive”.
CNITWSFSDRLWY had an amyloid nucleation score of 0.476 ± 0.27.
As for CNQMSFFTEALVNKLHLFFT, the amyloid nucleation score entry is “inactive”.
Then CNVEAG, with -1.55 ± 1.1; and CNVKCLRVARFDFVYRFFLP, with “inactive”; and CPAWFFCIVKKYFKTVAQTV, with 0.291 ± 0.48.
Then CPCWLLMLFPCISYRRNLIV, with -0.605 ± 0.46; and CPIWPVCWEVNHVPYLTKDI, with 0.58 ± 0.79.
Then CPYRYYHTNLFMVIFLYRGM, with -0.349 ± 0.47; and CQCGMVGVL, with -0.005 ± 0.45.
For CQFYWLTGPCMRRLRCGSVQ, the amyloid nucleation score worked out at 0.052 ± 0.36.
Regarding CQIFGNFWWKCIVGCRQIRF, the amyloid nucleation score result is “inactive”.
Then CQYRTTYSASFLNRS, with “inactive”; and CQYVCRDNFDYQTSSSCGCD, with “inactive”; and CRKFQWLSLM, with -0.921 ± 1.7.
Substance CRLCVLCAMYGI had an amyloid nucleation score of 0.939 ± 0.26.
For CRMRMLRKYVFLD, the amyloid nucleation score is -0.427 ± 0.61.
Then CRPVGRRYKWFTFSGGLLLR, with 1.14 ± 0.9; and CRSSSERSIFG, with 0.439 ± 0.53; and CSAMPAFWAGHRSGASLHER, with 0.017 ± 0.4.
For the substance CSAYDQVWDTNGRVCFA, the amyloid nucleation score was -0.003 ± 0.41.
CSCINSHLWSTSG returned an amyloid nucleation score of 0.386 ± 0.32.
Then CSDRCTTYCLFSLSDRKRIL, with -0.317 ± 0.25; and CSEISCPLTKHRCGTLVRVL, with -0.761 ± 1.2; and CSGSTRVKHFHRFFTNWLLM, with 0.323 ± 0.63.
Regarding CSKVVSSVLVQL, the amyloid nucleation score was -0.322 ± 0.45.
For CSLIIFAYRRLEFMILFYFD the value was -0.26 ± 0.49.
For CSLVLAIRHATCQEVVVGSC the value was 0.602 ± 0.6; for CSREYDVVGLA, 0.401 ± 0.28.
Then CSSHDQFSAR, with -0.214 ± 0.77; and CSYCVAENQFMEFRGFMRGP, with 0.234 ± 0.34.
The substance CTKCYPGVLYYFDCSGPGTR gave an amyloid nucleation score of -0.51 ± 0.65.
Then CTWWSMWNNNWDKFLTREQL, with 0.19 ± 1.1; and CTWYKFDIGWAEGLGYRDYP, with 0.282 ± 1.2.
For CVHLSKRCKLPVKIISLCLN the value was 0.767 ± 1.
Then CVHTSVDDGRNYVKNLNDAR, with “inactive”; and CVIKHSLRCFAIIGLSHRGG, with -0.255 ± 0.97; and CVKAD, with -0.354 ± 0.54.
As to CVKSYK, the amyloid nucleation score amounted to 0.48 ± 0.66.
Then CVLFESQ, with -0.188 ± 0.44.
For CVMVVSF the value was 0.934 ± 0.42.
Then CVTLTCLLSSIV, with 1.84 ± 0.12; and CVWMVETRQWREGFKCMPER, with 0.532 ± 0.97; and CVWVKGHSRCLTTSLVRRSR, with -0.022 ± 0.42.
Consider CWDFISCSGQVVNGWSKDSS, for which the amyloid nucleation score is -0.008 ± 0.42.
For CWFANRSLPVQIPRVW the value was -0.394 ± 0.48; for CWIFQDCCQKDCMLFLPCCK, 0.554 ± 0.26.
Then CWLRIGSSFRRARSGWTCDS, with -0.834 ± 0.91; and CWVETLTICACLTFTFFFWN, with 2.48 ± 0.14; and CWYWDSPSVGFTAILYYLAG, with 0.138 ± 0.57.
For CYASKMFWVVF the value was 2.06 ± 0.27.
Substance CYLLSRGYWSDMLGKWARGV gave an amyloid nucleation score of 0.131 ± 0.54.
On to CYNNF, for which the amyloid nucleation score result is “inactive”.
In turn, CYVVKVLFRPIY registered an amyloid nucleation score of 1.01 ± 0.97.
Then DACMTGSTLTGYLSTDVGLI, with “inactive”.
For DAGRWSYPGRCPNMWLRLLM the value was -0.461 ± 0.68.
For DARFLSWNANMID the value was 0.31 ± 0.19.
The substance DAWEDGSKMYESLGV had an amyloid nucleation score of -1.01 ± 0.56.
As for DCCISVSHSGRAALYVKVEI, the amyloid nucleation score was 0.022 ± 0.46.
For DCDYGCLKLSEEFGSVSSFR the value was 0.165 ± 1.4; for DCFLCLKVLGMSAVLREWYL, -1.17 ± 0.94; for DCGDSKRYVRITMFYFNRII, -0.262 ± 0.34.
For DCMFYVDRTGRSIGVVSIVE the value was -0.021 ± 0.28.
For DCNPSWIPFLVCHRIYACWR the value was 1.41 ± 0.64; for DDLACRSQ, 0.614 ± 0.27; for DDVYSRYVNEGLGWCFIVYL, “inactive”.
DELGAMMRIFSFSCNP gave an amyloid nucleation score of -0.147 ± 1.1.
As for DENDSGYELYFLGAGHTGSY, the amyloid nucleation score was -0.157 ± 0.39.
Then DEPMSDLALVFMYYTVYPGG, with 0.638 ± 0.55; and DESFCVVLFFFLCCLWFCHL, with 0.184 ± 0.7; and DEVIF, with 0.421 ± 0.52.
DEWLDPEASERRRGPGDWAL: the amyloid nucleation score is 0.55 ± 0.74.
In turn, DFASVEFWLIALPSQMCWFF came in with an amyloid nucleation score of 0.056 ± 0.76.
Then DFGLYLNNFCNGMHSFDLFN, with -0.378 ± 0.19.
Then DFIKTTQSFQYQRAD, with -0.717 ± 0.26.
Then DFMALI, with -0.013 ± 0.25; and DFNYPDSSCLGFKCLNAHWV, with -0.731 ± 0.33; and DFSRWIFMTHY, with -1.06 ± 0.99.
With DFSYYLWGMSV, the amyloid nucleation score is -0.991 ± 2.4.
Then DGDSLGCYWDASLARQCFGR, with -0.086 ± 0.29; and DGLSFLMEHLCVNTLCKGSR, with -0.075 ± 0.34; and DGTSPRQLKCMLKFLFDVWD, with 2.94 ± 0.2.
Then DGVVCMNAVCFQTMYVMYWL, with 6.69 ± 0.08; and DHGGVVPSNPGYNMARSLRF, with 0.465 ± 0.46.
For the substance DHMRYSTRRWQYPTSVVLSG, the amyloid nucleation score stood at 0.543 ± 0.25.
For DHTHLTTQNDICLMVSFTVE the value was 2.7 ± 0.096; for DIFYLCFRVYSEVGLSINVV, -0.529 ± 0.84; for DIIIWSSSRHYNVNCKSNSA, 0.55 ± 0.18.
For DIMKSSKAHELVQSLPIEKR the value was 0.248 ± 0.64; for DINFNDGICGIKLYCYCISN, -0.713 ± 1.7.
Then DIRVLTPLRITFHLKAQGLL, with -0.266 ± 1.4.
DIRWGVSFIKGNFHTEL: the amyloid nucleation score entry is “inactive”.
Consider DIVHGGYRLWTCKFGDVRYC, for which the amyloid nucleation score was -0.162 ± 0.32.
Regarding DKEYWSVSSVRYTTENGWI, the amyloid nucleation score was found to be 1.07 ± 0.47.
Then DLCPSGGVSDLCNPYGCFTL, with -0.427 ± 0.71; and DLDVFYCWGAYLAEGDLVCE, with 0.146 ± 0.41; and DLHLTNVSTRARPRLGLAAR, with 0.705 ± 0.56.
Take DLIWNSSFVRLNVTNPLMFR: the amyloid nucleation score result was “inactive”.
DLLFAVYYELEHGFERVAGR came in with an amyloid nucleation score of 4.78 ± 0.081.
For DLNNGDAKSDRFYGSFLHSW the value was -0.612 ± 0.32; for DLRAVNLNSYSLLDSFTCFF, 5.59 ± 0.06; for DLVTH, 0.015 ± 0.83.
For DLYGACEMWCAENSYGRFSV the value was 0.107 ± 0.95; for DMCNLTRLPLVYFM, -0.037 ± 1.7; for DMIKNAVNILLMMSVF, -0.399 ± 0.28.
For DMPTS the value was 0.45 ± 0.75; for DNGLGKCSMQPEWHRAWGAR, 2.06 ± 0.13.
The substance DNTWLFVAL gave an amyloid nucleation score of 0.918 ± 0.35.

The values are drawn from the supplement of paper PMC12042874.
